Assay results published in PMC3477848 (Biochemistry, 2012).
Where two headings read alike, the source gives them in different places.

How the values were obtained:
Assay in all cases: fluorescence anisotropy
[1] = target: T1, Dpo4 (SsoDpo4, Y-family DNA polymerase) (Sulfolobus solfataricus, UniProt Q97W02 1-352)
T1 sequence: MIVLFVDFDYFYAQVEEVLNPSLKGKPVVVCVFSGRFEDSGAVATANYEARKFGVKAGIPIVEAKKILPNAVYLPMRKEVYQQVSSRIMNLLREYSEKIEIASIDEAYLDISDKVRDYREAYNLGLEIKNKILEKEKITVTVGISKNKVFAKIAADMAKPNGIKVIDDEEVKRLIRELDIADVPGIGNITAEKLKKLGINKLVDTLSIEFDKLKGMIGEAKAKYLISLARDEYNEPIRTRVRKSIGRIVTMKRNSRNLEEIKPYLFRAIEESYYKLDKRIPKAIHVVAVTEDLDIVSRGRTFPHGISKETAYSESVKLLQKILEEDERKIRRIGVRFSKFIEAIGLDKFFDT

[2] = target: T2, Dpo1 exo- (SsoDpo1, B-family DNA polymerase) (Sulfolobus solfataricus, UniProt P26811 1-882, D231A;D318A)
T2 sequence: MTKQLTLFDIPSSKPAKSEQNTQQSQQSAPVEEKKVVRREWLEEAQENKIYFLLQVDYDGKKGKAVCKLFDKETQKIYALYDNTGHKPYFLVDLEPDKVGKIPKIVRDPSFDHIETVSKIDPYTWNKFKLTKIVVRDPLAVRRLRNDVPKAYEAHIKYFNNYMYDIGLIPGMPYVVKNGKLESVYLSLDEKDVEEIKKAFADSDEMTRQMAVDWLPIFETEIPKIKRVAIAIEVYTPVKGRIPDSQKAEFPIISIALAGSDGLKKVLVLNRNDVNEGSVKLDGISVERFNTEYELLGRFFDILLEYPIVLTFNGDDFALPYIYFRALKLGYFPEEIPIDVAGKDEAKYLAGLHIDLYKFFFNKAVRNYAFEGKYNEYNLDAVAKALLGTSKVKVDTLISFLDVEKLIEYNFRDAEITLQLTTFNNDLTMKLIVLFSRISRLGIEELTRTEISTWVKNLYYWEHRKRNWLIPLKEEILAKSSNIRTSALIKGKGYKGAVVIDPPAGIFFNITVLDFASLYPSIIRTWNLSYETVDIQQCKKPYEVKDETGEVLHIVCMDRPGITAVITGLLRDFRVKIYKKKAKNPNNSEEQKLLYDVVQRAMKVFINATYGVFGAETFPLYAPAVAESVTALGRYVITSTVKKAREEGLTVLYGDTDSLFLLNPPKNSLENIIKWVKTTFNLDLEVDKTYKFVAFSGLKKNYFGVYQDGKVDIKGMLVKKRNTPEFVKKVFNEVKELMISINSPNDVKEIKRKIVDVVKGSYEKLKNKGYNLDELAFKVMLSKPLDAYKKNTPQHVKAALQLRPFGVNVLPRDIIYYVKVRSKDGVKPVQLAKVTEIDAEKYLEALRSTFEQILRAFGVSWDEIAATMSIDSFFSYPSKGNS

[3] = target: T1, Dpo4 (SsoDpo4, Y-family DNA polymerase); remark: listed apart in the source
[4] = target: T2, Dpo1 exo- (SsoDpo1, B-family DNA …); remark: listed apart in the source
[5] = target: T1, Dpo4 (SsoDpo4, Y-family DNA polymerase); remark: listed apart in the source
[6] = target: T2, Dpo1 exo- (SsoDpo1, B-family DNA …); remark: listed apart in the source
[7] = target: T2, Dpo1 exo- (SsoDpo1, B-family DNA …); remark: listed apart in the source
[8] = target: T1, Dpo4 (SsoDpo4, Y-family DNA polymerase); remark: listed apart in the source

TTTTTTTTTTCCCGGGCCGGCGTTTCGCCGGCCCGGG (structured_DNA) [37-nt hairpin primer-template, 5'-Cy3]
Kd [1]: 329 ± 107 nM
Kd [2]: 208 ± 57 nM
Kd [3]: 444 ± 115 nM
Kd [4]: 208 ± 22 nM
Kd [5]: 214 ± 3 nM
Kd [6]: 170 ± 23 nM
Kd [7]: 94 ± 1 nM
Kd [8]: 164 ± 9 nM
